Source: the supplement of paper PMC9876800

Test system: peptide library, one residue held at a place counted from the S/T acceptor
Assay: relative phosphorylation of the sub-library (ratio to the mean residue at this position); human; higher = residue favoured
How it was run: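 Each biotinylated degenerate peptide sub-library fixed one residue at one position around a central Ser/Thr and was incubated with a purified recombinant kinase, a human or orthologue construct, in 384-well plates. The 90 min reactions, under kinase-specific conditions, contained 50 μM peptide and 50 μM ATP spiked with γ-32P-ATP. Phosphorylation was read by phosphorimaging spots on streptavidin membranes and quantifying them by densitometry. Relative sub-library phosphorylation expresses each value as a ratio to the mean residue at that position.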

Sequence of TP53RK, construct: Full length (Q96S44 whole entry, looked up): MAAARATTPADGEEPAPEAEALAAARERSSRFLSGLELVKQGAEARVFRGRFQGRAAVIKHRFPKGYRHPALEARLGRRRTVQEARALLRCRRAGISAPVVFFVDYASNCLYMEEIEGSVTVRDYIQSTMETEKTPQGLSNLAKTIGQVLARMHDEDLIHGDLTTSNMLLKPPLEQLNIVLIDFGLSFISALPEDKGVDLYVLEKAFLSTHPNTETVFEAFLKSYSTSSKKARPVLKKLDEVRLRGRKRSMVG
Sequence of TNIK, construct: aa1-314 (Q9UKE5 1-314, looked up): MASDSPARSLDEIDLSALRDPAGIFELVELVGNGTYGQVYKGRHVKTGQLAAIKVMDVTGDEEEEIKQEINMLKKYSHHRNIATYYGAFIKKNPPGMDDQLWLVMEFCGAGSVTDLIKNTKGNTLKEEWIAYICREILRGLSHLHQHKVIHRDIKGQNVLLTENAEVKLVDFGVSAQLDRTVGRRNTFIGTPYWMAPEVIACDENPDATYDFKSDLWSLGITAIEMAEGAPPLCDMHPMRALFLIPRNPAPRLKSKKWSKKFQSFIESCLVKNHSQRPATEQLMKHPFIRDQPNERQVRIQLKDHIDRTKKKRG
Sequence of STK10, construct: aa18-317 (O94804 18-317, looked up): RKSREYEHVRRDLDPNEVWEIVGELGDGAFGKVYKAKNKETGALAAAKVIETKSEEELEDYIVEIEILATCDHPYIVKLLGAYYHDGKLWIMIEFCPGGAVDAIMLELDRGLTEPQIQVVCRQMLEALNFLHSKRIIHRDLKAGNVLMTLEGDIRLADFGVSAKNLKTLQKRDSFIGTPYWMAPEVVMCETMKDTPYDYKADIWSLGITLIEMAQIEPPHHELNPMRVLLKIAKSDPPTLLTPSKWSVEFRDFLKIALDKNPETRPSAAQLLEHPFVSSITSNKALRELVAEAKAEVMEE

STK10, construct: aa18-317 (from UniProt O94804)
relative phosphorylation
Settings	at +1	at +2	at +3	at +4	at -1	at -2	at -3	at -4	at -5
A fixed	0.6	0.853	0.817	0.9	0.811	0.667	0.873	0.975	1.15
D fixed	0.168	0.371	0.456	0.637	0.412	0.51	0.598	0.695	0.905
E fixed	0.167	0.225	0.409	0.563	0.304	0.216	0.598	0.776	0.605
F fixed	1.23	0.634	0.846	0.816	0.911	2.13	1.02	0.85	0.846
G fixed	0.564	1.09	1.09	1.21	0.703	0.543	0.936	1.35	1.28
H fixed	1.06	1.48	1.26	1.04	1.41	1.07	1.25	1.16	1.15
I fixed	1.47	0.48	0.568	0.666	0.539	0.384	0.505	0.718	0.672
K fixed	1.04	2.28	1.92	1.7	1.99	1.86	2.07	1.62	1.81
L fixed	2.1	0.629	0.809	0.876	1.18	0.559	0.612	0.767	0.654
M fixed	1.83	0.729	0.72	0.827	1.12	0.918	0.759	0.858	0.768
N fixed	0.757	1.12	0.961	1.17	1.13	0.879	1.07	0.837	1.15
P fixed	0.321	1.05	1.62	1.48	0.584	0.492	0.85	1.14	1.09
Q fixed	0.763	0.952	0.954	1.17	1.03	0.777	1.02	0.956	0.82
R fixed	1.18	3.13	2.06	1.63	1.96	1.72	2.01	1.58	1.73
V fixed	0.956	0.56	0.613	0.724	0.6	0.485	0.475	0.795	0.814
W fixed	1.49	0.732	0.987	0.896	0.93	0.881	1.24	1.05	0.769
Y fixed	1.3	0.688	0.91	0.699	1.38	2.91	1.11	0.877	0.788
pThr fixed	0.44	0.484	0.586	0.537	0.274	0.358	0.612	0.857	0.871
pTyr fixed	0.362	0.314	0.667	0.476	0.382	0.491	0.938	0.816	0.855

STK39, construct: Full length (from UniProt Q9UEW8)
relative phosphorylation
Settings	at +1	at +2	at +3	at +4	at -1	at -2	at -3	at -4	at -5
A fixed	0.382	0.623	0.889	0.918	0.783	0.729	0.996	1	1.13
D fixed	0.233	0.398	0.795	0.812	1.29	1.04	1.1	1.47	1.27
E fixed	0.266	0.234	0.96	0.651	1.05	0.826	0.895	1.36	1.07
F fixed	1.17	0.908	0.901	0.899	0.908	1.05	0.783	0.88	0.983
G fixed	0.24	0.824	1.06	1.27	0.606	0.888	0.933	1.2	1.07
H fixed	1.01	4.16	1.32	0.999	1.62	1.44	1.47	1.07	0.932
I fixed	2.61	0.696	0.654	0.739	0.638	0.409	0.615	0.672	0.679
K fixed	0.432	0.55	0.862	1.15	0.818	0.414	0.61	0.771	0.927
L fixed	1.56	0.65	1.01	0.921	1.32	0.721	0.646	0.76	0.619
M fixed	1.33	0.873	1.05	0.952	1.18	0.744	0.763	0.832	0.866
N fixed	0.453	1.08	1.27	1.18	1.34	1.29	1.59	1.02	0.95
P fixed	0.175	0.523	0.906	1.14	0.49	0.539	0.937	1.05	1.24
Q fixed	0.661	1.03	1.19	1.19	0.963	1.91	1.09	0.959	0.892
R fixed	0.517	0.824	1.06	1.18	1.04	0.529	0.677	0.831	0.96
V fixed	1.84	1.04	0.72	0.694	0.584	0.457	0.623	0.769	0.911
W fixed	2.89	0.987	1.16	1.37	1.06	1.17	1.03	1.18	1.17
Y fixed	1.23	1.61	1.19	0.933	1.3	2.84	2.24	1.17	1.34
pThr fixed	0.677	0.474	0.767	0.493	0.867	0.793	1.11	1.19	1.25
pTyr fixed	0.614	0.352	1	0.586	1.77	1.16	1.02	1.25	1.45

TNIK, construct: aa1-314 (from UniProt Q9UKE5)
relative phosphorylation
Settings	at +1	at +2	at +3	at +4	at -1	at -2	at -3	at -4	at -5
A fixed	0.761	1.16	0.938	1.13	1.07	1.21	1.01	1.08	1.36
D fixed	0.223	0.678	0.496	0.73	0.855	0.883	0.799	0.968	0.923
E fixed	0.249	0.591	0.389	0.656	0.682	0.577	0.76	1.1	0.885
F fixed	0.89	0.449	0.465	0.632	0.699	1.24	0.895	0.959	0.909
G fixed	0.746	1.01	0.904	1.17	1.73	1.3	1.2	1.18	1.31
H fixed	0.916	1.28	0.94	1.06	1.52	1.19	1.47	1.13	1.02
I fixed	1.49	0.459	0.381	0.593	0.326	0.689	0.701	0.73	0.724
K fixed	1.08	2.49	3.02	2.18	1.36	0.919	1.44	1.17	1.2
L fixed	2.4	0.685	0.777	0.636	0.803	0.595	0.67	0.751	0.619
M fixed	1.98	0.806	0.52	0.715	1.06	0.79	0.814	0.866	0.793
N fixed	0.843	0.992	0.871	1.02	1.33	1.19	1.15	0.792	1.02
P fixed	0.338	1.05	1.14	1.23	0.65	0.736	1.08	1.18	1.41
Q fixed	0.782	1.04	0.886	1.04	0.859	0.987	0.896	0.964	0.912
R fixed	0.995	2.4	3.23	2.2	1.7	1.19	1.33	1.17	1.22
V fixed	0.898	0.531	0.503	0.65	0.438	0.785	0.594	0.816	0.891
W fixed	1.32	0.593	0.789	0.738	0.685	1.17	1.04	0.954	0.771
Y fixed	1.08	0.783	0.745	0.619	1.23	1.55	1.16	1.19	1.02
pThr fixed	0.541	0.566	0.532	0.519	0.449	0.797	0.884	0.945	1
pTyr fixed	0.42	0.505	0.638	0.581	1.02	0.969	1.22	1.15	1.03

TP53RK, construct: Full length (from UniProt Q96S44)
relative phosphorylation
Settings	at +1	at +2	at +3	at +4	at -1	at -2	at -3	at -4	at -5
A fixed	0.941	0.938	1.06	0.947	1.23	1.24	1.01	1.17	1.05
D fixed	1.03	1.01	0.952	1.05	0.972	0.929	1.02	0.897	0.956
E fixed	1.09	1.08	0.988	1.16	1	1.04	1.1	0.973	0.922
F fixed	1.12	1.09	1.04	0.983	0.998	0.94	1.03	0.971	0.953
G fixed	0.918	0.956	1.08	0.958	1.3	1.49	1.08	1.12	0.976
H fixed	1.07	1.33	1.07	1.11	0.847	0.877	0.987	1.11	1.17
I fixed	0.913	0.816	0.945	0.896	0.976	1.01	0.878	0.829	0.893
K fixed	1.05	1.01	0.99	1.09	0.864	0.848	0.985	1.07	1.12
L fixed	1.01	0.85	0.926	0.862	1.03	0.981	0.815	0.792	0.86
M fixed	0.979	0.926	0.959	0.879	1.04	1.02	1.03	0.949	0.946
N fixed	1.01	0.998	0.947	0.955	0.933	0.927	1.02	0.966	0.961
P fixed	0.85	0.925	1.02	0.967	1.24	1.2	0.955	1.16	0.989
Q fixed	1.04	0.975	0.953	1.08	0.897	0.906	1.06	1.04	0.903
R fixed	0.973	0.971	0.964	1.01	0.857	0.853	1	1.03	1.12
V fixed	0.917	0.885	0.949	0.838	0.964	0.989	0.894	0.931	0.962
W fixed	1.05	1.13	1.04	1.15	0.907	0.867	1.14	1.07	1.16
Y fixed	1.05	1.11	1.12	1.07	0.939	0.892	0.996	0.922	1.05
pThr fixed	0.977	0.952	0.886	1.03	1.06	1.08	0.987	0.973	0.943
pTyr fixed	1.05	1.11	1.02	1.01	3.48	1.31	1.08	0.942	0.944
